The target of one assay is iC3b (human). Briefly: SPR; iC3b immobilised on a CM5 chip by maleimide coupling via Cys988; αI variants as analyte, 5 injections at 0.32-26.0 μM; 10 mM HEPES-NaOH pH 7.4, 100 mM NaCl, 5 mM MgCl2; 25 °C; steady-state analysis of maximum RU, apparent KD (saturation not reached). On the technique in general: SPR reads the build-up and loss of mass on a sensor chip optically.

Assay [1] concerns the target CR3 αI domain (von Willebrand A inserted domain of the αM chain of CR3), residues 126-321, C128S/I316G (human) (UniProt P11215). Briefly: SPR; Biacore X100; CR3 αI biotinylated (NHS-PEG4-biotin) and captured on a streptavidin chip, ~900 RU; initial single-concentration injections, then 5 injections of iC3b (0.1-10.0 uM) or C3c (0.7-60.0 uM); 10 mM HEPES-NaOH pH 7.4, 100 mM NaCl, 5 mM MgCl2; 25 °C; steady-state model, saturation not reached, apparent KD.

The target in assay [2] is human iC3b (human) (UniProt P01024). Briefly: SEC + other: SAXS; iC3b mixed with CR3 αI at 1:2 molar ratio, Superdex 200 10/300 GL, 20 mM HEPES-NaOH pH 7.5, 200 mM NaCl, 5 mM MgCl2; SAXS in continuous-flow batch mode at 4 °C.
The target is the same in assay [3]. Briefly: SPR; Biacore X100; iC3b immobilised on CM5 chip by maleimide chemistry through Cys988; αI variants as analyte (5 injections at 0.32-26.0 uM); 10 mM HEPES-NaOH pH 7.4, 100 mM NaCl, 5 mM MgCl2; 25 °C; steady-state analysis, apparent KD.
The target in the next assay is C3c (UniProt P01024 955-1303). The assay is described as follows: SPR; Biacore X100; CR3 αI biotinylated (NHS-PEG4-biotin) and captured on a streptavidin chip, ~900 RU; initial single-concentration injections, then 5 injections of iC3b (0.1-10.0 uM) or C3c (0.7-60.0 uM); 10 mM HEPES-NaOH pH 7.4, 100 mM NaCl, 5 mM MgCl2; 25 °C; steady-state model, saturation not reached, apparent KD. The note with it: both partners purified.

On to “CR3 αI domain variant 1A2A (R216A/K231A/R261A/R293A) (from UniProt P11215 142-337) (domain or fragment)”, for which, in the assay with iC3b (human), the Kd is 64.7 µM.

As for “CR3 αI domain variant 1A (R261A/R293A) (from UniProt P11215 142-337) (domain or fragment)”, in the assay with iC3b (human), the Kd was 16.8 µM.

In the case of “CR3 αI domain variant 2A (R216A/K231A) (from UniProt P11215 142-337) (domain or fragment)”, the Kd with iC3b (human) turned out to be 27.5 µM.

On to “human iC3b (from UniProt P01024 749-1303) (complex)”, for which, in assay [1], the Kd was 5.2 µM.

B1: CR3 αI domain (von Willebrand A inserted domain of the αM chain of CR3), residues 126-321, C128S/I316G (domain or fragment)
chain: RGSPQEDSDIAFLIDGSGSIIPHDFRRMKEFVSTVMEQLKKSKTLFSLMQYSEEFRIHFTFKEFQNNPNPRSLVKPITQLLGRTHTATGIRKVVRELFNITNGARKNAFKILVVITDGEKFGDPLGYEDVIPEADREGVIRYVIGVGDAFRSEKSRQELNTIASKPPRDHVFQVNNFEALKTIQNQLREKGFAIEG
modifications: NHS-PEG4-biotin on random amine groups (only in the SPR where CR3 αI was captured on the streptavidin chip)
notes: Made in bacteria, so not glycosylated at Asn224; also called WT; not shown: His6, N-terminal, cleaved
For orientation: stoichiometry N means the number of molecules, sites or subunits per partner or assembly. Regarding B1, the stoichiometry N with human iC3b (human) [2] came out at 1. Moreover, the figures for the Kd with human iC3b (human) [3] and with C3c were 7.1 µM and approximately 39 µM, respectively.

The values above are taken from article PMC9005620, “The crystal structure of iC3b-CR3 αI reveals a modular recognition of the main opsonin iC3b by the CR3 integrin receptor” (Nature Communications, 2022).
